In data set [1] the test system is MS2 coat protein. Description: apparent KD of MS2 coat protein, switch OFF state (with FMN for OFF switches, without FMN for ON switches); designed switch direction (-1 OFF switch, 1 ON switch): -1; higher = weaker reporter binding. The settings on record: FMN input: 0 or 200 uM; Eterna round: R93 (includes R88 designs). A digest of the protocol:
(§1)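 Values are apparent KD, taken as the median for each design of fits to normalised binding curves from individual clusters. The designed RNA switches were transcribed on-chip from Illumina sequencing clusters and exposed to SNAP-549-labelled MS2 coat protein at twofold increasing amounts from 0.7 or 1.5 nM to 3 µM. Titration used 100 mM Tris-HCl pH 7.5, 80 mM KCl and 4 mM MgCl2, without or with constant ligand.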

Data set [2] has as its system MS2 coat protein. Description: apparent KD of MS2 coat protein, switch ON state; designed switch direction (-1 OFF switch, 1 ON switch): -1; higher = weaker reporter binding. To be noted: FMN input: 0 or 200 uM; Eterna round: R93 (includes R88 designs). In short, it runs like this: as §1

In the case of “AAAAACGGAGGAUAUACAUGAGGAUCACCCAUGUAAAAAAAAAAAAAGGGAAAAAAAAGUAGAAGGCCGAAAAA [Sekhemrekhutawy Pantjeny]”, the “apparent KD of MS2 coat protein” value was 0.0712 µM in data set [1] and 0.0391 µM in data set [2].

“AUCAUGUUAGGAUAUAAAAGAAAAGAAAAGAAAGAAAAGAAUUAGAAGGAACAUGAGGAUCACCCAUGUAAGAA [EteRNA is fun!]”: the entries for the “apparent KD of MS2 coat protein” value in data set [1] and in data set [2] were 0.0265 µM and 0.0347 µM, respectively.

With “AAAAAACAUGAGGAUCACCCAUGUGAGGAUAUGAUGCGAAUAAAGAAAGAAUAAAGCAUCAGAAGGCACAAAAA [Mat - Exclusion 1 - Eli mod - D62]”, the “apparent KD of MS2 coat protein” value was 0.0496 µM in data set [1] and 0.0364 µM in data set [2].

“AACUGACAUGAGGAUCACCCAUGUCAGGAUAUGACUUGAAAAAAAAAAAAAAAACAUGUCAGAAGGGACAUGGG [Design 55 :P Sub-opt HB]”: the “apparent KD of MS2 coat protein” value in data set [1] worked out at 0.0179 µM; in data set [2] it was 0.0268 µM.

On to “GGUUGCGUAGGAUAUACAUGAGGAUCACCCAUGUGAGAGAAAAAAGUGAGAAAGAAAAGUAGAAGGACGUGACG [salish99-ex3-125]”, for which the “apparent KD of MS2 coat protein” value in data set [1] turned out to be 0.0579 µM; in data set [2], 0.0297 µM.

For “AUAAAGUGAGGAUAUCGAAGACUGUCGAAAAGACAGUCGAACGAGAAGGCACAUGAGGAUCACCCAUGUGAGGG [Mat - Exaclusion 4 - Eli mod - D68]”, the “apparent KD of MS2 coat protein” value came out at 0.122 µM in data set [1] and 0.0797 µM in data set [2].

For the sequence “AAAACGGUAGGAUAUACAAUUGGGAACUAGACCGAAAAAAAACAUGAGGAUCACCCAUGUAGAAGGGCCAAAAA [Ex2 Malc#11]”, the entries for the “apparent KD of MS2 coat protein” value in data set [1] and in data set [2] were 0.0912 µM and 0.0478 µM, respectively.

With “AAAACACAUGAGGAUCACCCAUGUCAGGAUAUACGAGAAAGAAAAGAAAAGAAAAGAAGUAGAAGGGACUAGAA [Exclusion1 Malc#3]”, the figures for the “apparent KD of MS2 coat protein” value in data set [1] and in data set [2] were 0.0224 µM and 0.0157 µM, respectively.

“AAGGGACAUGAGGAUCACCCAUGUAAGGAUAUGCUAUGGAAAAUAAAAAUAAAACAUAGCAGAAGGUACAAAAA [Denovo 15]”: the “apparent KD of MS2 coat protein” value in data set [1] came out at 0.135 µM; in data set [2], 0.124 µM.

As for “AACAAGUCAGGAUAUACAAAAAGUAAAUAAGUAAAACAAAAGUAGAAGGGACAUGAGGAUCACCCAUGUAAAUA [JR_Exc004_Sub018]”, the results for the “apparent KD of MS2 coat protein” value in data set [1] and in data set [2] were 0.0267 µM and 0.0468 µM, respectively.

Regarding “AGAAUACAUGAGGAUCACCCAUGUGAGGAUAUCCAAAGAAAAAGAAAAGAAAAGAAAAGGAGAAGGCACAAAAG [EX 1 May 13]”, the entries for the “apparent KD of MS2 coat protein” value in data set [1] and in data set [2] were 0.0673 µM and 0.0787 µM, respectively.

Turning to “GAAAAGUGAGGAUAUUCGGAUAGGAAAACGAAAACCUAUCCGAAGAAGGCACAUGAGGAUCACCCAUGUAAAAG [Mat - Exaclusion 4 - Eli mod - D36]”, the “apparent KD of MS2 coat protein” value in data set [1] is 0.0519 µM; in data set [2], 0.0412 µM.

Turning to “AUAGUACAUGAGGAUCACCCAUGUCAGGAUAUUGGAUAUGAAAAAAAAAAAAAGUUAACGAGAAGGGACUAUAA [EX1 Malc#14]”, the “apparent KD of MS2 coat protein” value is 0.0336 µM in data set [1] and 0.0285 µM in data set [2].

For “AAGAAACAUGAGGAUCACCCAUGUGAGGAUAUGAAAAAGAAAAGAAAAGAAAGAAGAAUCAGAAGGCACAAAGG [Nebkaure Khety II]”, the “apparent KD of MS2 coat protein” value turned out to be 1.85 µM in data set [1] and 0.0221 µM in data set [2].

As for “AAGAUGUUAGGAUAUGCUGCUCGUCACAAAAGUGAUGAGUAGCAGAAGGGACAUGAGGAUCACCCAUGUAAAGA [JL eternac mod 6]”, the entries for the “apparent KD of MS2 coat protein” value in data set [1] and in data set [2] were 0.0348 µM and 0.0455 µM, respectively.

With “AACAAGUAAGGAUAUGCUGCUCGUCACAAAAGUGAUGAGUAGCAGAAGGUACAUGAGGAUCACCCAUGUAAAGA [JL eternac mod 16]”, the figures for the “apparent KD of MS2 coat protein” value in data set [1] and in data set [2] were 0.0211 µM and 0.028 µM, respectively.

Regarding “AGCUAGUCAGGAUAUACGAACAGGUGAAAAGACGUAAGGGAACAUGAGGAUCACCCAUGUAGAAGGGACUAGCA [Diamond 53]”, the “apparent KD of MS2 coat protein” value in data set [1] stood at 0.0993 µM; in data set [2] it was 0.0913 µM.

In the case of “CUCUUGUCAGGAUAUGUAAGAAAAGAAGAGAAAGAAAAGAAACAGAAGGGACAUGAGGAUCACCCAUGUAAGAA [EteRNA is fun!]”, the “apparent KD of MS2 coat protein” value was determined as 0.077 µM in data set [1] and 0.0664 µM in data set [2].

On to “AUAAAACAUGAGGAUCACCCAUGUGAGGAUAUCUAAAAAGAAAGAAAAAAAAAAAAAAAGAGAAGGCACAAUAA [Amethyst 45]”, for which the “apparent KD of MS2 coat protein” value in data set [1] turned out to be 0.0318 µM; in data set [2] it was 0.0277 µM.

Consider “AACAUGUCAGGAUAUGUGUAAAGAAUAAAAGAAAUAACAACACAGAAGGGACAUGAGGAUCACCCAUGUCAACA [May 32]”, for which the “apparent KD of MS2 coat protein” value in data set [1] worked out at 0.0293 µM; in data set [2], 0.0261 µM.

(Values after the supplement of paper PMC9170038.)
